One molecule from patent publication US20080124335A1 (NATIONAL CEREBRAL AND CARDIOVASCULAR CENTER, published 2008) can be followed below.

In test [1] the target is T1, human TGR1 (human, UniProt Q9GZQ4 1-415). Nature of the test: radioligand competition: crude membrane fraction (10 µg) of CHO cells expressing human TGR1, 50 pM [^125I-Tyr^0]-NMS, filtration. On the procedure:
(§1) The receptor binding test was conducted by an improvement of the Gottschall, et al. method (Gottschall, P. E., et al., Endocrinology, 127, 272, 1990). A crude cell membrane fraction was prepared from human FM-3 or human TGR1-expressed CHO cells. Also, human NMS ([Tyr⁰]-NMS) added with Tyr at the N terminus was radioactively labeled with ¹²⁵I and then purified on HPLC. The crude cell membrane fraction (10 μg) and the radiolabeled peptide (50 pM) were reacted at room temperature for 2 hours in a buffer supplemented with 0.05% CHAPS and 1% BSA in the presence of a competitive peptide. The reaction product was filtered to separate the bound from the unbound radiolabeled peptide. The radioactivity was measured with a TopCount liquid scintillation counter (Packard).
On the technique in general: Displacement assays read how much labelled ligand stays bound in the presence of the test substance.

Test [2] deals with T2, human FM-3 (human, UniProt Q9HB89 24-426).
T2 sequence: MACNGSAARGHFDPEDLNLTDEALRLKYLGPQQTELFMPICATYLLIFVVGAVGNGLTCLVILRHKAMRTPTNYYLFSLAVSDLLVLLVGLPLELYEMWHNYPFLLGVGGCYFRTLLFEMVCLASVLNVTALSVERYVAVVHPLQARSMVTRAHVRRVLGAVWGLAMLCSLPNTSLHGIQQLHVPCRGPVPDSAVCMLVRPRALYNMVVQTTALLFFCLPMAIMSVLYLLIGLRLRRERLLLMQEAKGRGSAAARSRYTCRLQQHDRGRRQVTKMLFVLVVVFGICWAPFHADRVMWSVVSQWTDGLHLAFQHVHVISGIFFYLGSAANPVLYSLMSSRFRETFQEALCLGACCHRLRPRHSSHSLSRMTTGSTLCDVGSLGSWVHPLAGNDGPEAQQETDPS
Nature of the test: radioligand competition: crude membrane fraction (10 µg) of CHO cells expressing human FM-3, 50 pM [^125I-Tyr^0]-NMS, filtration. On the procedure:
as §1

Test [3] addresses T2, human FM-3. Description: cell-based or functional assay.
The target of test [4] is T1, human TGR1. Nature of the test: cell-based or functional assay.

No end group written: not given here.

The IC50 is the concentration at which inhibition is half-maximal. Low values mean higher potency, high ones lower potency.

T1 sequence (Q9GZQ4 other isoform, or with tags, fused parts or gaps): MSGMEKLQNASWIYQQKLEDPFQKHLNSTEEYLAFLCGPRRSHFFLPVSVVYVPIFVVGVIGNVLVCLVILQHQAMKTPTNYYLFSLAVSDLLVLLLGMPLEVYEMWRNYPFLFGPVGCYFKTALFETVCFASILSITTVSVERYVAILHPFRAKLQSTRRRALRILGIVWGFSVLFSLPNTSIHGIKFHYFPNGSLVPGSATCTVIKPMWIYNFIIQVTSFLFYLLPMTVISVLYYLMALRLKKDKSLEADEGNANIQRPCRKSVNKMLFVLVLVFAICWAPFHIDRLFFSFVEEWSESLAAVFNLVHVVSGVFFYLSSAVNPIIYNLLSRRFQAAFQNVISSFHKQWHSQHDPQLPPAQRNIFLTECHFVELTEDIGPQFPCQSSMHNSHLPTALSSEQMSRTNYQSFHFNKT

B1: human neuromedin S (peptide)
peptide: ILQRGSGTAAVDFTKKDHTATWGRPFFLFRPRN
modifications: ends and bridges not checked
notes: also called human NMS; NMS
Regarding B1, the concentration for half-maximal inhibition (IC50) with human TGR1 [1] was 0.1 nM; with human FM-3 [2], 1.2 nM. In addition, the “intracellular Ca ion level increase (calcium-mobilization assay, FLIPR), EC50” value with human FM-3 [3] is 0.065 nM; with human TGR1 [4], 0.091 nM.
